Measured values published in the supplement of paper PMC10567573.
± gives the standard deviation.

Assay: protein stability index of a GFP-peptide fusion (GPS, HEK-293T) (PSI 1-6); higher = more stable
[1] = treatment: DMSO, c terminus: a fixed tail appended
[2] = treatment: MLN4924 1 uM, 8 h, c terminus: a fixed tail appended
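Note: 24-mer peptide tiles fused after GFP, lentivirally expressed, FACS-sorted into six equal bins by GFP/DsRed ratio, decoded by Illumina sequencing, PSI is the read-weighted mean bin number.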

Sequence | protein stability index [1] | protein stability index [2] | protein stability index (treatment: DMSO, c terminus: native) | protein stability index (treatment: MLN4924 1 uM, 8 h, c terminus: native)
QAPPQDSSNKKEKKVLNHGYDDDN [DYRK1B] | 5.61 ± 0.16 | 5.51 ± 0.11 | – | –
VSLHQASLGGCSQDFLLFSPEVES [NFE2L1] | 2.06 ± 0.12 | 2.971 ± 0.02 | – | –
RQFEFYLEEMILPLMVASAQSGER [BTBD10] | 2.58 ± 0.64 | 3.2 ± 0.43 | – | –
PPPKTNLTPGQSDSAKREVKQKIS [FAN1] | 5.44 ± 0.24 | 5.35 ± 0.094 | – | –
LSPEPPVYSLQDFDTLATVGTGTF [PRKX] | 3.64 ± 0.21 | 3.59 ± 0.31 | – | –
MGSGTSTQHHFAFQNAERAFKAAA [PPEF2] | 3.46 ± 0.43 | 2.98 ± 0.25 | – | –
LLLGTAYSFYLFHPLAYGMVGPLA [POMT2] | 3.32 ± 0.18 | 3.18 ± 0.59 | – | –
QASSERLGLDNRLFGHPGLDMELG [ADAMTSL2] | 3.87 ± 0.12 | 4.02 ± 0.5 | – | –
MGQWQLEVGDPAPLGAGNLGPELI [DPCD] | 3.42 ± 0.23 | 3.48 ± 0.2 | – | –
VTVLEDLEKGLEPEPQVPGPAHGP [ZNF232] | 4.99 ± 0.27 | 4.874 ± 0.039 | – | –
RLHLRRTTEQHVPEVEVQVKRRRT [SNURF] | 4.75 ± 0.26 | 4.71 ± 0.35 | – | –
TSVNLGILTADLYSLFVGLFLFGY [SLC35F2] | 2.93 ± 0.26 | 3.12 ± 0.2 | – | –
KFTNKEWETIRSFKDEWTQLDMFY [AASDHPPT] | 2 ± 0.36 | 2.22 ± 0.23 | – | –
LSLHVKSLGASPTVAGIVGSSYGI [MFSD9] | 2.71 ± 0.93 | 2.42 ± 0.38 | – | –
RAINLLFDIARIERCNQLLRALKL [ZER1] | 1.82 ± 0.16 | 2.08 ± 0.32 | – | –
ILFLPCLRKKILKIRHGWEDVTKI [STEAP1] | 2.95 ± 0.39 | 2.46 ± 0.42 | – | –
IDDLEDDPVVNGERSGCALTDAVA [TCF25] | 5.3 ± 0.19 | 5.37 ± 0.11 | – | –
QGDPAFPEMNGNGAVAPMDFTTAA [NOL4L] | 5.09 ± 0.2 | 4.98 ± 0.16 | – | –
VVGNWQYFFPVIFSKASDSLQLVF [MAGEA6] | 3.21 ± 0.34 | 3.32 ± 0.63 | – | –
LKHQTVYRLLKCAPRGKNGFTPLH [FEM1A] | 2.71 ± 0.69 | 2.39 ± 0.57 | – | –
KYLKVPQDPLKFYKKIYFCHSCQL [IQUB] | 2.24 ± 0.47 | 1.97 ± 0.2 | – | –
LGSTKLSDKDKAVGIFNTVINPML [OR3A1] | 3 ± 0.46 | 3.19 ± 0.28 | – | –
REESQHEIKDVLVWTNDQVVHWVQ [PPFIA4] | 3.4 ± 0.37 | 3.97 ± 0.45 | – | –

Sequence | protein stability index [1] | protein stability index [2] | protein stability index (treatment: DMSO, c terminus: native) | protein stability index (treatment: MLN4924 1 uM, 8 h, c terminus: native)
VISCLEQGEEPWVQVSPEFKDSAG [ZNF75A] | 4.59 ± 0.11 | 4.68 ± 0.13 | – | –
ELQKIVQAGDKDLDGQLDFEEFVH [SLC25A25] | 3.93 ± 0.046 | 4.19 ± 0.21 | – | –
MAGLSKEPNTLRAPRVRTAFTMEQ [VENTX] | 3.54 ± 0.28 | 3.75 ± 0.22 | – | –
LLASLTGGVLIDRYGRRTAIILSS [SLC2A12] | 2.86 ± 0.5 | 3.06 ± 0.87 | – | –
FVYENAKEGARNIRTSERVTLIVD [BTBD10] | 2.55 ± 0.6 | 3.06 ± 0.5 | – | –
PADIQAQFAISRELIRNIYNSFHK [SNX8] | 2.04 ± 0.29 | 2.24 ± 0.3 | – | –
QDLLKERQKDLKFLSEEEYWKLQI [CCNC] | 3.45 ± 0.13 | 3.67 ± 0.15 | – | –
DFGACDGGLLTGNEKITMQNLNDR [KRT13] | 4.57 ± 0.33 | 4.53 ± 0.37 | – | –
LRRVLDELTLARTDLEMQIEGLKE [KRT16] | 2.9 ± 0.52 | 3.07 ± 0.14 | – | –
AIDMFIIGATFTDWFTSYVKNVVS [FBXO3] | 2.82 ± 0.35 | – | – | –
VIVQLHKLRHLDISRDRLSSYYKF [ZER1] | 2.76 ± 0.63 | 2.56 ± 0.45 | – | –
MMRGLSYSLTTSSTHKSSLCKVEI [RAB40A] | 2.31 ± 0.59 | 2.28 ± 0.46 | – | –
TKGVREVERALQLPREPGDSAQFT [FEM1A] | 4.72 ± 0.23 | 4.76 ± 0.29 | – | –
LFLGRILSLTSSASRLLTTALTSF [FANCE] | 2.44 ± 0.1 | 2.27 ± 0.19 | – | –
YQRPQDSEDMWGDEDFTFGAYQPT [FBF1] | 3.2 ± 0.55 | 3.76 ± 0.48 | – | –
PAGGLAPGGGRGALLDQIRQGIQL [WAS] | 4.7 ± 0.19 | 4.54 ± 0.76 | – | –
ELIRNIQELLKRTIMQAVSQIRLN [TEKT4] | 3 ± 0.46 | 2.77 ± 0.53 | – | –
EPREFSSRNFGVRNQGNFSVVGTV [ZC2HC1C] | 3.06 ± 0.31 | 3.01 ± 0.24 | – | –
FLKEYFPIEVVTEGLLNTYQELLG [NLN] | 2.44 ± 0.51 | 2.52 ± 0.55 | – | –
GLVYRIHSVLQGFIPLFQKFRLTG [TMEM40] | 3.03 ± 0.56 | 2.73 ± 0.37 | – | –
GESYESCCPTSREAAVEALELLGA [FEM1A] | 4.58 ± 0.12 | 4.66 ± 0.2 | – | –
IQRIRSEIENVKKQASNLETAIAD [KRT71] | 4.42 ± 0.29 | 4.61 ± 0.31 | – | –
FYRLYQDLETHRLPCTSRCPRPCR [SCNN1D] | 2.8 ± 0.26 | 2.99 ± 0.35 | – | –

Sequence | protein stability index [1] | protein stability index [2] | protein stability index (treatment: DMSO, c terminus: native) | protein stability index (treatment: MLN4924 1 uM, 8 h, c terminus: native)
NRPLSLKDQQTFARSVGLKWRKVG [TRADD] | 3.03 ± 0.15 | 3.17 ± 0.11 | – | –
LDGQLDFEEFVHYLQDHEKKLRLV [SLC25A25] | 3.3 ± 0.68 | 2.98 ± 0.33 | – | –
ILDICEDNVPDPKDVKERFSGSLV [TMEM175] | 3.83 ± 0.19 | 4.06 ± 0.13 | – | –
KADTLKERYQKIGDTKRATPIEVL [CSNK1G3] | 3.88 ± 0.18 | 4.01 ± 0.32 | – | –
ISGLRFETQLKTLAQFPNTLLGNP [KCNA1] | 2.46 ± 0.23 | 2.41 ± 0.11 | – | –
LASSLSPSQDERMRSPQNLHSQED [NOL4L] | 5.37 ± 0.38 | 5.54 ± 0.12 | – | –
SVINNGHNQKVHMHMVDLMSSIIC [PDS5B] | 2.02 ± 0.27 | 2.53 ± 0.3 | – | –
HFFGDKALKKRSGKKDKHSQSPRA [PBXIP1] | 4.09 ± 0.36 | 4.33 ± 0.45 | – | –
FIYSLKQMLLNVEANSAKVQEDLE [FSD1] | 2.55 ± 0.16 | 2.38 ± 0.28 | – | –
HSPSCLARVTGELTMTFPAGIVRV [FCHO1] | 2.53 ± 0.44 | 2.67 ± 0.76 | – | –
RASQREYEELRNSERAEVQRLEEQ [RSPH3] | 5.43 ± 0.27 | 5.3 ± 0.2 | – | –
VTIPAGATHILVRQQGNPGHRSIY [ADAMTS4] | 2.51 ± 0.12 | 2.32 ± 0.52 | – | –
EESGSSSASEEEDTKPKPTKRKRK [INTS3] | 5.55 ± 0.17 | 5.57 ± 0.29 | – | –
TQHWPIRLDGQQEPQPFVTSDVYS [MYORG] | 3.56 ± 0.27 | 3.46 ± 0.22 | – | –
CETTLFALRMATWNQILDPWVYIL [PTGFR] | 2.89 ± 0.16 | 2.93 ± 0.6 | – | –
AVSESYSAPGACEEPTERGNLEVG [FBXO34] | 5.49 ± 0.12 | 5.57 ± 0.26 | – | –
KSLEGDLEDLKDQIAQLEASLAAA [LMNB1] | 4.48 ± 0.23 | 4.23 ± 0.44 | – | –
DDKTDKRIFTFICKDSESNKHLCY [GULP1] | 2.47 ± 0.45 | 2.51 ± 0.26 | – | –
STYYWPRPRRYVQPPEMIGPMRPE [GAGE1] | 2.68 ± 0.33 | 3.01 ± 0.31 | – | –
DVRLDREHRVAGIFPRLSFKDKST [CLPTM1] | 3.79 ± 0.063 | 4 ± 0.089 | – | –
VNDLRGSDSIAYDKGEKLLRCKLA [ADD1] | 3.34 ± 0.21 | 3.48 ± 0.48 | – | –
WEEAQSPANCPACREPSPKMDFKT [TRIM43] | 4.56 ± 0.076 | 4.83 ± 0.25 | – | –
AMETDGPLFEDVQMLRKTVKDEAH [PPP2R5C] | 5.24 ± 0.49 | 5.12 ± 0.39 | – | –

Sequence | protein stability index [1] | protein stability index [2] | protein stability index (treatment: DMSO, c terminus: native) | protein stability index (treatment: MLN4924 1 uM, 8 h, c terminus: native)
KELADFIRERATIEETYSKAMAKL [FCHO1] | 3.16 ± 0.21 | 3.31 ± 0.29 | – | –
DTDVDMEGLRRRRGREAGPPQPMV [PBXIP1] | 4.75 ± 0.36 | 5.04 ± 0.11 | – | –
TPLLIAARYGHLDVVEYLVDRCGA [FEM1A] | 2.05 ± 0.27 | 2.18 ± 0.15 | – | –
LGEDNQPETQLFWDKEPWFWHDTL [TLE6] | 3.37 ± 0.35 | 3.32 ± 0.27 | – | –
IKEAKEQHPDMSVTKVVVHKETEI [EPB41L3] | 5.23 ± 0.14 | 5.02 ± 0.21 | – | –
LEKCKTLVSQSNDLSSLRAKYPHD [SPACA9] | 4.29 ± 0.16 | 4.4 ± 0.19 | – | –
IPRENAQISLDGDVTFFGALKLL [TNFSF13B] | – | – | 2.71 ± 0.24 | 2.73 ± 0.46
VLNPHPSLGYKEIRKGESRSEALA [CHGA] | 4.14 ± 0.19 | 4.5 ± 0.3 | – | –
ATRSIQVDGKTIKAQIWDTAGQER [RAB11A] | 4.28 ± 0.33 | 4.37 ± 0.19 | – | –
QEQNGRLQAELAAQEALREKAAAL [LRRC45] | 5.25 ± 0.21 | 5.31 ± 0.28 | – | –
CFSTGLSRRVLLTNVVTGHRQSFG [DCAF4] | 2.1 ± 0.18 | 2.38 ± 0.21 | – | –
EDEKQRLQNEVRQLTEKLARVNEN [SSNA1] | 4.99 ± 0.35 | 5.17 ± 0.24 | – | –
LDLSEEDSDDPSVTLELSQLSMLP [VDR] | 4.62 ± 0.3 | 4.73 ± 0.26 | – | –
QATCNVHKSAFNDWFSGHLNFQIE [FADS1] | 2.44 ± 0.28 | 2.48 ± 0.2 | – | –
FGRKDHLTRHTKKTHSQELMKESL [PLAGL1] | 3.53 ± 0.2 | 3.77 ± 0.26 | – | –
AALHIDLCKATSPADALQYLLQFA [INTS4] | 2.36 ± 0.51 | 2.29 ± 0.15 | – | –
AVIAQQRRKPDPPKDENERSTCNV [DLC1] | 5.24 ± 0.21 | 5.12 ± 0.19 | – | –
CEEQKCEEEVFPLAMNYLDRFLAG [CCND2] | 3.82 ± 0.17 | 4.05 ± 0.28 | – | –
SDINSIRRILDELTLCKSDLESQV [KRT34] | 3.34 ± 0.2 | 3.1 ± 0.37 | – | –
NFKAHVSPHEMLQAVVLCSKKTFQ [USP39] | 2.25 ± 0.25 | 2.26 ± 0.3 | – | –
